This is an account of results in US20230174622A1.

This assay has as its target eEGFRt (modified EGFRt on edited T cells; variant not specified) (human). The experiment in a line: cell-based or functional assay.

“αEGFR-SAP immunotoxin (biotinylated Cetuximab antibody combined with streptavidin-SAP conjugate, 1:1 molar ratio)” yielded a depletion of EGFRt-expressing lymphocytes after 3 days in vitro (flow cytometry), 5 nM and 1 nM of 50%; a reduction of eEGFRt+ cells after in vitro treatment (flow cytometry) of 1.8 fold.
